Test results reported in patent publication US20220025021A1 (BETH ISRAEL DEACONESS MEDICAL CENTER, published 2022).
Positions count from the first letter of the chain named.

B1: MS-114 (antibody)
VH: not shown
VL: DIVLTQSPLSLSVTPGEPASISCKSSHSLIHGDRNNYLAWYVQKPGRSPQLLIYLASSRASGVPDRFSGSGSDKDFTLKISRVEAEDVGTYYCMQGRESPWTFGQGTKVDIKRTVAAPSVFIFPPSDEQLKSGTASVVCLLNNFYPREAKVQWKVDNALQSGNSQESVTEQDSKDSTYSLSSTLTLSKADYEKHKVYACEVTHQGLSSPVTKSFNRGEC
B2: MS-115 (antibody)
VH: not shown
VL: B1 VL with P18S, D73G
B3: MS-116 (antibody)
VH: not shown
VL: B1 VL with L9H, D73G
B4: MS-117 (antibody)
VH: not shown
VL: B1 VL with I2F, D73G
B5: MS-118 (antibody)
VH: not shown
VL: B1 VL with D73G
B6: MS-93 (antibody)
VH: not shown
VL: B1 VL with P18S, A85T
B7: MS-94 (antibody)
VH: not shown
VL: B1 VL with L9H, A85T
B8: MS-95 (antibody)
VH: not shown
VL: B1 VL with L9H, P18S, D73G, A85T
B9: MS-96 (antibody)
VH: not shown
VL: B1 VL with L9H, P18S
B10: MS-97 (antibody)
VH: not shown
VL: B1 VL with I2F, A85T
B11: MS-98 (antibody)
VH: not shown
VL: B1 VL with I2F, P18S, D73G, A85T
B12: MS-99 (antibody)
VH: not shown
VL: B1 VL with I2F, P18S
B13: MS-100 (antibody)
VH: not shown
VL: B1 VL with I2F, L9H, D73G, A85T
B14: MS-101 (antibody)
VH: not shown
VL: B1 VL with I2F, L9H
B15: MS-102 (antibody)
VH: not shown
VL: B1 VL with I2F, L9H, P18S, D73G
B16: MS-103 (antibody)
VH: not shown
VL: B1 VL with A85T

molecular target: HIV-1 envelope glycoprotein of pseudovirus BB1012-11.TC21 (HIV-1); experiment: cell-based or functional assay

Binder	IC50 (neutralization in TZM.bl cells) [µg/mL]	IC80 (neutralization in TZM.bl cells) [µg/mL]
B1	0.033	0.136
B2	0.024	0.106
B3	0.03	0.139
B4	0.03	0.099
B5	0.036	0.117
B6	0.034	0.118
B7	0.055	0.146
B8	0.044	0.117
B9	0.047	0.195
B10	0.04	0.13
B11	0.025	0.114
B12	0.032	0.084
B13	0.029	0.095
B14	0.037	0.121
B15	0.031	0.1
B16	0.046	0.155

molecular target: HIV-1 envelope glycoprotein of pseudovirus 0260.v5.c36 (HIV-1); experiment: cell-based or functional assay

Binder	IC50 (neutralization in TZM.bl cells) [µg/mL]	IC80 (neutralization in TZM.bl cells) [µg/mL]
B1	0.03	0.105
B2	0.025	0.067
B3	0.024	0.067
B4	0.021	0.057
B5	0.019	0.069
B6	0.034	0.116
B7	0.027	0.095
B8	0.022	0.06
B9	0.026	0.093
B10	0.028	0.096
B11	0.019	0.068
B12	0.024	0.087
B13	0.019	0.053
B14	0.025	0.069
B15	0.019	0.053
B16	0.03	0.104

molecular target: HIV-1 envelope glycoprotein of pseudovirus DU172.17 (HIV-1); experiment: cell-based or functional assay

Binder	IC50 (neutralization in TZM.bl cells) [µg/mL]	IC80 (neutralization in TZM.bl cells) [µg/mL]
B1	1.66	7.74
B2	1.83	5.04
B3	1.97	6.71
B4	1.91	6.49
B5	2.12	8.29
B6	3.24	9.14
B7	3.03	11.2
B8	1.97	7.07
B9	3.58	13
B10	2.21	7.54
B11	1.44	6.33
B12	1.95	7.14
B13	1.56	5.25
B14	2.41	6.88
B15	1.16	5.91
B16	2.68	10.2

molecular target: HIV-1 envelope glycoprotein of pseudovirus RHPA4259.7 (HIV-1); experiment: cell-based or functional assay

Binder	IC50 (neutralization in TZM.bl cells) [µg/mL]	IC80 (neutralization in TZM.bl cells) [µg/mL]
B1	0.237	1.24
B2	0.237	0.647
B3	0.187	0.663
B4	0.201	0.715
B5	0.164	0.785
B6	0.358	1.6
B7	0.358	0.985
B8	0.208	0.69
B9	0.252	1.14
B10	0.183	0.824
B11	0.146	0.676
B12	0.257	0.718
B13	0.142	0.694
B14	0.227	0.816
B15	0.178	0.649
B16	0.29	1.33

molecular target: HIV-1 envelope glycoprotein of pseudovirus SC422661.8 (HIV-1); experiment: cell-based or functional assay

Binder	IC50 (neutralization in TZM.bl cells) [µg/mL]	IC80 (neutralization in TZM.bl cells) [µg/mL]
B1	0.236	2.21
B2	0.202	1.03
B3	0.185	1.06
B4	0.168	1.33
B5	0.244	2.05
B6	0.333	2.71
B7	0.315	1.23
B8	0.433	2.88
B9	0.397	2.82
B10	0.311	2.09
B11	0.301	2.14
B12	0.294	1.46
B13	0.184	1.31
B14	0.251	1.88
B15	0.17	1.21
B16	0.408	1.99

molecular target: HIV-1 envelope glycoprotein of pseudovirus CNE52 (HIV-1); experiment: cell-based or functional assay

Binder	IC50 (neutralization in TZM.bl cells) [µg/mL]	IC80 (neutralization in TZM.bl cells) [µg/mL]
B1	0.444	3.61
B2	0.489	5.46
B3	0.321	3.09
B4	0.206	1.73
B5	0.42	3.4
B6	0.636	5.6
B7	0.455	5.18
B8	0.567	5.05
B9	0.543	5.36
B10	0.214	1.62
B11	0.237	1.91
B12	0.219	1.8
B13	0.147	2.02
B14	0.145	1.23
B15	0.211	1.87
B16	0.432	4.18
